# Values of other authors, collected in article PMC8257665.
# Columns and labels:
# Glu109 = Glu109 (UniProt position 109, PLLICEFYLIL); conditions: ground (dark) state GPR implied; not stated explicitly
# Glu143 = Glu143 (UniProt position 143, FGYMGEAGIMA); conditions: ground (dark) state GPR implied; not stated explicitly
substance,measurement,setting,value
Green-light absorbing proteorhodopsin (GPR) (uncultured marine gamma-proteobacterium (the article says only 'marine γ-proteobacteria')),pKa,Glu109,> 8.5
same,pKa,Glu143,> 9.0
